Test results as given in article PMC8591536, “DNA asymmetry promotes SUMO modification of the single‐stranded DNA‐binding protein RPA” (The EMBO Journal, 2021).

Columns and labels:
[1] = target: T1, replication protein A (RPA): Rfa1(1–621), His6-Rfa2(1–273), Rfa3(1–122) (budding yeast, UniProt P22336 1-621; P26754 1-273; P26755 1-122); experiment: native gel or EMSA; 10 nM 6-FAM-ds20ss32 DNA pre-bound to RPA, RPA∆WH or SUMO-RPA, serially diluted full-length Siz2; 25 min at 23°C; 20 mM HEPES pH 7.5, 125 mM NaCl, 0.1% Tween-20, 5 mM MgCl2; native 6% polyacrylamide gel in 0.5x TBE; apparent Kd; settings: both partners purified
T1 construct: Rfa1 subunit of RPA, budding yeast, residues 1-621, tagless; Rfa2 subunit of RPA, budding yeast, residues 1-273, noncleavable N-terminal hexahistidine tag; Rfa3 subunit of RPA, budding yeast, residues 1-122, tagless; also called wild-type RPA; source: E. coli BL21 (DE3) CodonPlus RIL, co-expressed, purified (Ni-NTA, HiTrap Heparin, Superdex200); not shown: His6, N-terminal, kept; copies: + +
T1 sequence (P22336 whole entry, chain 1 of 3, the tested form may be a part): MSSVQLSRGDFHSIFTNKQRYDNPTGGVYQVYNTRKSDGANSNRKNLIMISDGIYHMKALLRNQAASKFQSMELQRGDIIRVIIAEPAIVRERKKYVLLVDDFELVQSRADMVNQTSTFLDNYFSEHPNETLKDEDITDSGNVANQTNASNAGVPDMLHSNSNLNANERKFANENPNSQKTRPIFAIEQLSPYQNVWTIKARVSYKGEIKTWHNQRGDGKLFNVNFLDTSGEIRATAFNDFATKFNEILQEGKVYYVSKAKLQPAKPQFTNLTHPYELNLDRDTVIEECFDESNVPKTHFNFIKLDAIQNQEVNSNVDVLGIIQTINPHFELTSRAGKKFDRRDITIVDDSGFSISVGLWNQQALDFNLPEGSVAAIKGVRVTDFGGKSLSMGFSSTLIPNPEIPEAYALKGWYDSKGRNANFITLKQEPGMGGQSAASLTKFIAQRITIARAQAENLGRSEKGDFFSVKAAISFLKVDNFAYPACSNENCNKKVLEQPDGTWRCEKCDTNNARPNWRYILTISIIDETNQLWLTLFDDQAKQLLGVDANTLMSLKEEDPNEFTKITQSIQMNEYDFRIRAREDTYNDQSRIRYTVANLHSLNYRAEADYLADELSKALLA
T1 sequence (P26754 whole entry, chain 2 of 3, the tested form may be a part): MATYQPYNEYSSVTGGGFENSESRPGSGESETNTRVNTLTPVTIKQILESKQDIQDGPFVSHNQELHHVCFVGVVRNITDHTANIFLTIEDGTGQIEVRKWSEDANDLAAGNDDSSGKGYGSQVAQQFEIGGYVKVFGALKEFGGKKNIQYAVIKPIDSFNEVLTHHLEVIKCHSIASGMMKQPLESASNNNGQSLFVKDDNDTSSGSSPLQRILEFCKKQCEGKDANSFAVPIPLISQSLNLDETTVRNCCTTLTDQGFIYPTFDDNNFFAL
T1 sequence (P26755 whole entry, chain 3 of 3, the tested form may be a part): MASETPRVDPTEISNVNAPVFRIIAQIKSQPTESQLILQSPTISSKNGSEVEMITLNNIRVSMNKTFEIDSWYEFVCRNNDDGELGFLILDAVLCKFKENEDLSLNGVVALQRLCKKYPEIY

[2] = target: T2, RPA reconstituted with ∆WH-Rfa2: Rfa1(1–621), His6-Rfa2(1–205), Rfa3(1–122) (budding yeast, UniProt P22336 1-621; P26754 1-205; P26755 1-122); experiment: as above; settings: both partners purified
T2 construct: Rfa1 subunit of RPA, budding yeast, residues 1-621, tagless; Rfa2 subunit of RPA, budding yeast, residues 1-205 (winged helix domain removed), noncleavable N-terminal hexahistidine tag; Rfa3 subunit of RPA, budding yeast, residues 1-122, tagless; The purification of this variant is not described on its own; also called RPA∆WH; RPA lacking the WH domain of Rfa2; source: E. coli BL21 (DE3) …
T2 sequence (P22336 whole entry, chain 1 of 3, the tested form may be a part): as the sequence (P22336 whole entry, chain 1 of 3, the tested form may be a part) above
T2 sequence (P26754 1-205, chain 2 of 3): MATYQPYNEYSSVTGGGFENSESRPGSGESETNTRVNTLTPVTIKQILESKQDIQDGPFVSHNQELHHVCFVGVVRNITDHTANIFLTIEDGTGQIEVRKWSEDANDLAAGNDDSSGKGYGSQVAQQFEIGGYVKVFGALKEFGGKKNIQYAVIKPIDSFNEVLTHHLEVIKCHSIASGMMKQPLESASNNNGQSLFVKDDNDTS
T2 sequence (P26755 whole entry, chain 3 of 3, the tested form may be a part): as the sequence (P26755 whole entry, chain 3 of 3, the tested form may be a part) above

RPA (Rfa1/Rfa2/Rfa3) = RPA (Rfa1/Rfa2/Rfa3) (Saccharomyces cerevisiae? (budding …, UniProt P22336;P26754;P26755 1-621;1-273;1-122)); experiment: fluorescence polarization; 5 mM MgCl2; FP: 20 mM HEPES pH 7.5, 125 mM NaCl, 0.1% Tween-20, 23°C, 50 nM DNA (RPA/SUMO-RPA on ss32: 1 nM DNA, plus 5 mM MgCl2, 1 mM DTT); EMSA: same buffer with 5 mM MgCl2 (Fig 8 also 1 mM DTT), 23°C, 6% gel in 0.5x TBE; settings: protein: recombinant; tags: noncleavable N-terminal His6 on Rfa2; copies: 1;1;1; label: 5' 6-FAM; single strand
Chain of RPA (Rfa1/Rfa2/Rfa3) (Saccharomyces cerevisiae? (P22336 whole entry, chain 1 of 3): as the sequence (P22336 whole entry, chain 1 of 3, the tested form may be a part) above
Chain of RPA (Rfa1/Rfa2/Rfa3) (Saccharomyces cerevisiae? (P26754 whole entry, chain 2 of 3): as the sequence (P26754 whole entry, chain 2 of 3, the tested form may be a part) above
Chain of RPA (Rfa1/Rfa2/Rfa3) (Saccharomyces cerevisiae? (P26755 whole entry, chain 3 of 3): as the sequence (P26755 whole entry, chain 3 of 3, the tested form may be a part) above

Siz2∆CT = target: T3, Siz2∆CT (Saccharomyces cerevisiae? (budding …, UniProt Q12216 1-420)); experiment: fluorescence polarization; FP: 20 mM HEPES pH 7.5, 125 mM NaCl, 0.1% Tween-20, 23°C, 50 nM DNA (RPA/SUMO-RPA on ss32: 1 nM DNA, plus 5 mM MgCl2, 1 mM DTT); EMSA: same buffer with 5 mM MgCl2 (Fig 8 also 1 mM DTT), 23°C, 6% gel in 0.5x TBE; settings: protein: recombinant; tags: His6-thioredoxin removed with TEV; label: 5' 6-FAM on strand 1; blunt
T3 sequence: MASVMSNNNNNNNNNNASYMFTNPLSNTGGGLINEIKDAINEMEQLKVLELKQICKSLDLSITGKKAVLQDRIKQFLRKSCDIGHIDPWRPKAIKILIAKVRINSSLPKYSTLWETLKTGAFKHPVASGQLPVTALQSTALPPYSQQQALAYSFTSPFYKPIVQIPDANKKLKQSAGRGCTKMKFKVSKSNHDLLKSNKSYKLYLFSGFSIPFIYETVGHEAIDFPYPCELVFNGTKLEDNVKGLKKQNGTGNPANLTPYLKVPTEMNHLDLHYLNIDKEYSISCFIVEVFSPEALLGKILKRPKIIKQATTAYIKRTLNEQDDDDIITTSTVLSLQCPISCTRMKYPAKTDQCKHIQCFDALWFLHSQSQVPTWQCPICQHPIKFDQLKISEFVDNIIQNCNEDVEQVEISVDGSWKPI

[3] = target: T1, replication protein A (RPA): …; experiment: fluorescence polarisation; 50 nM 5'-fluorescein-labelled DNA in complex with RPA or RPA∆WH, serially diluted Siz2∆CT; 23°C; 20 mM HEPES pH 7.5, 125 mM NaCl, 0.1% Tween-20; apparent Kd, single-site model with ligand depletion; settings: both partners purified
[4] = target: T2, RPA reconstituted with ∆WH-Rfa2: …; experiment: as above; settings: both partners purified

B1: Siz2(1–726) (enzyme, budding yeast, UniProt Q12216 1-726, looked up)
chain: MASVMSNNNNNNNNNNASYMFTNPLSNTGGGLINEIKDAINEMEQLKVLELKQICKSLDLSITGKKAVLQDRIKQFLRKSCDIGHIDPWRPKAIKILIAKVRINSSLPKYSTLWETLKTGAFKHPVASGQLPVTALQSTALPPYSQQQALAYSFTSPFYKPIVQIPDANKKLKQSAGRGCTKMKFKVSKSNHDLLKSNKSYKLYLFSGFSIPFIYETVGHEAIDFPYPCELVFNGTKLEDNVKGLKKQNGTGNPANLTPYLKVPTEMNHLDLHYLNIDKEYSISCFIVEVFSPEALLGKILKRPKIIKQATTAYIKRTLNEQDDDDIITTSTVLSLQCPISCTRMKYPAKTDQCKHIQCFDALWFLHSQSQVPTWQCPICQHPIKFDQLKISEFVDNIIQNCNEDVEQVEISVDGSWKPIHNSSAVITDTVNQNHSVKNENQGTVKQEQDYDSRNAFDTNLRNGSNHNEPEIISLDSSDDEAFIPASKSFPTHVNPRNDQLRADIFPSESEGSSDYNPNHTSTPKGSPTMDQDNYQDAFQMRSFLNQGATTNINDTPTNNSSINSFVTATNGDSRIFYNRGPSTPLLPAVLQNLTNQTEAQRNPYGPNYNTTAQDRNLLGIEGDLPPIPPVDPNSEAETELPTRTTSAAHLPPYIHVSTSGHGDDGKIRKRRHSNVSIYIPKNPYATLMKRRPQANHAIMNKTLAQTNDFNTSAQDNSEVVDLTSD
notes: SUMO E3 ligase Siz2, budding yeast, full length; cloned as Siz2(1–726), called Siz2(1–727) in the purification paragraph; also called full-length Siz2; Siz2(1–727); source: E. coli BL21 (DE3) CodonPlus RIL, purified (Ni-NTA, HiTrap Heparin, Ulp1 cleavage, Ni-NTA, Superdex200)
binding result [1]: binds
binding result [2]: binds

B2: 6-FAM-ss32 (32dT) (ssDNA)
DNA: TTTTTTTTTTTTTTTTTTTTTTTTTTTTTTTT
Kd (RPA (Rfa1/Rfa2/Rfa3)): < 1 nM

B3: 6-FAM-ds20 (dsDNA)
DNA 1: GCTGTAGCTAGTTTTGCTTC
DNA 2: GAAGCAAAACTAGCTACAGC
binding result (Siz2∆CT): binds

B4: Siz2(1–420) (domain or fragment, budding yeast, UniProt Q12216 1-420, looked up)
chain: T3 sequence
notes: SUMO E3 ligase Siz2, budding yeast, residues 1-420 (SAP, PINIT and SP-RING domains; C-terminal region removed); also called Siz2∆CT; source: E. coli BL21 (DE3) CodonPlus RIL, purified (Ni-NTA, TEV cleavage, Superdex75); not shown: His6, N-terminal, cleaved; thioredoxin, N-terminal, cleaved
binding result [3]: binds
binding result [4]: binds
